Drawing on PMC3020594, this text covers Km and Vmax for 1 protein.

Substrate in data set [1]: Nc1ncn([C@H]2C[C@H](O)[C@@H](CO)O2)c(=O)n1
The experiment in a line: purified protein. The data set is classed as biochemical, Homo sapiens. The settings on record: zinc active site.

Substrate in data set [2]: Nc1ccn([C@H]2C[C@H](O)[C@@H](CO)O2)c(=O)n1
Description: purified protein. Conditions: zinc active site.

What is called Km is the concentration of substrate that gives half-maximal velocity. By Vmax is commonly meant the top rate of the reaction or transport when substrate is in excess.

B1: human cytidine deaminase (CDA) (Homo sapiens; Y33G) (protein)
chain: MAQKRPACTLKPECVQQLLVCSQEAKKSAYCPGSHFPVGAALLTQEGRIFKGCNIENACYPLGICAERTAIQKAVSEGYKDFRAIAIASDMQDDFISPCGACRQVMREFGTNWPVYMTKPDGTYIVMTVQELLPSSFGPEDLQKTQ
With B1, in data set [1], the Km came to 349.0 µM and the Vmax was found to be 0.174 µmol/min/mg. In data set [2], the Km was determined as 47.6 µM and the Vmax stood at 0.127 µmol/min/mg.
